How the values were obtained:
[1] = biological target: optimized bait-PAR-Grb2, GFP-fused (with inserted flexible linker sequences between fluorophore and Grb2) (UniProt P62993); assay: subcellular micropatterning (bait-prey copatterning, TIRF microscopy); live HeLa cells co-expressing bait-PAR-Grb2 and fluorescent prey on anti-HA antibody patterned COP substrate; bait-normalized prey contrast; basal conditions, before EGF
[2] = biological target: optimized bait-PAR-Grb2, GFP-fused (with inserted flexible linker sequences between fluorophore and Grb2) (UniProt P62993); assay: as above; remark: listed apart in the source
[3] = biological target: optimized bait-PAR-Grb2, GFP-fused (with inserted flexible linker sequences between fluorophore and Grb2) (UniProt P62993); assay: TIR-FRAP on bait micropatterns; live HeLa cells co-transfected with bait-PAR-Grb2 and prey on anti-HA patterns; EGF (170 nM) for at least 5 min before FRAP; single patterns bleached for 500 ms; bi-exponential, diffusion-uncoupled two-component fit
[4] = biological target: optimized bait-PAR-Grb2, GFP-fused (with inserted flexible linker sequences between fluorophore and Grb2) (UniProt P62993); assay: subcellular micropatterning (bait-prey copatterning, TIRF microscopy); live HeLa cells co-expressing bait-PAR-Grb2 and fluorescent prey on anti-HA antibody patterned COP substrate; bait-normalized prey contrast; after EGF stimulation (170 nM, 10 min)
[5] = biological target: optimized bait-PAR-Grb2, RFP-fused (UniProt P62993); assay: subcellular micropatterning (bait-prey copatterning, TIRF microscopy); competition in live HeLa cells: bait-PAR-Grb2-RFP and Gab1-GFP on anti-HA patterns, cyclo(YpVNFΦrpPRR) added to the cells (100 μM over time; dose-response); bait-normalized contrast set between 0 and 100%
[6] = biological target: optimized bait-PAR-Grb2, RFP-fused (UniProt P62993); assay: subcellular micropatterning (bait-prey copatterning, TIRF microscopy); competition in live HeLa cells: bait-PAR-Grb2-RFP and GFP-fused SOS1 on anti-HA patterns, cyclo(YpVNFΦrpPRR) added to the cells (100 μM over time; dose-response); bait-normalized contrast set between 0 and 100%
[7] = biological target: optimized bait-PAR-Grb2, RFP-fused, P62993; assay: subcellular micropatterning (bait-prey copatterning, TIRF microscopy); live HeLa cells with bait-PAR-Grb2-RFP and GFP-fused Gab1 or SOS1 on anti-HA patterns, treated with 10 μM actinomycin D, copatterning followed over time; details: remark: other sources report otherwise
[8] = biological target: optimized bait-PAR-Grb2, RFP-fused, P62993; assay: subcellular micropatterning (bait-prey copatterning, TIRF microscopy); live HeLa cells co-expressing bait-PAR-Grb2 and fluorescent prey on anti-HA antibody patterned COP substrate; bait-normalized prey contrast; basal conditions, before EGF; details: remark: other sources report otherwise
[9] = biological target: optimized bait-PAR-Grb2, RFP-fused, P62993; assay: TIR-FRAP on bait micropatterns; live HeLa cells co-transfected with bait-PAR-Grb2 and prey on anti-HA patterns; EGF (170 nM) for at least 5 min before FRAP; single patterns bleached for 500 ms; bi-exponential, diffusion-uncoupled two-component fit; details: remark: other sources report otherwise
[10] = biological target: optimized bait-PAR-Grb2, RFP-fused, P62993; assay: subcellular micropatterning (bait-prey copatterning, TIRF microscopy); live HeLa cells co-expressing bait-PAR-Grb2 and fluorescent prey on anti-HA antibody patterned COP substrate; bait-normalized prey contrast; after EGF stimulation (170 nM, 10 min); details: remark: other sources report otherwise

Molecule: SHC-transforming protein 1 (Shc1), RFP-fused (from UniProt P29353 1-583) (natural protein)
- bait-normalized fluorescence contrast <c prey/bait> [1]: 0.21
- bait-normalized fluorescence contrast <c prey/bait> [2]: 0.14
- half-time of dissociation (FRAP) [3]: 10 s
- k slow (exchange rate, FRAP) [3]: 0.103 s⁻¹
- bait-normalized fluorescence contrast <c prey/bait> [4]: 0.45

Molecule: cell-permeable cyclic peptide cyclo(YpVNFΦrpPRR)
- EC50 [5]: 68 µM
- dissociation half-life of Gab1 from Grb2 at 100 μM peptide [5]: 42 s
- maximum prey dissociation at 100 μM peptide (Gab1 from Grb2) [5]: 70 to 75%
- EC50 [6]: 63 µM
- dissociation half-life of SOS1 from Grb2 at 100 μM peptide [6]: 36 s
- maximum prey dissociation at 100 μM peptide (SOS1 from Grb2) [6]: 70 to 75%

B1: son of sevenless protein 1 (SOS1), GFP-fused, Q07889 1-1333 (natural protein)
chain: MQAQQLPYEFFSEENAPKWRGLLVPALKKVQGQVHPTLESNDDALQYVEELILQLLNMLCQAQPRSASDVEERVQKSFPHPIDKWAIADAQSAIEKRKRRNPLSLPVEKIHPLLKEVLGYKIDHQVSVYIVAVLEYISADILKLVGNYVRNIRHYEITKQDIKVAMCADKVLMDMFHQDVEDINILSLTDEEPSTSGEQTYYDLVKAFMAEIRQYIRELNLIIKVFREPFVSNSKLFSANDVENIFSRIVDIHELSVKLLGHIEDTVEMTDEGSPHPLVGSCFEDLAEELAFDPYESYARDILRPGFHDRFLSQLSKPGAALYLQSIGEGFKEAVQYVLPRLLLAPVYHCLHYFELLKQLEEKSEDQEDKECLKQAITALLNVQSGMEKICSKSLAKRRLSESACRFYSQQMKGKQLAIKKMNEIQKNIDGWEGKDIGQCCNEFIMEGTLTRVGAKHERHIFLFDGLMICCKSNHGQPRLPGASNAEYRLKEKFFMRKVQINDKDDTNEYKHAFEIILKDENSVIFSAKSAEEKNNWMAALISLQYRSTLERMLDVTMLQEEKEEQMRLPSADVYRFAEPDSEENIIFEENMQPKAGIPIIKAGTVIKLIERLTYHMYADPNFVRTFLTTYRSFCKPQELLSLIIERFEIPEPEPTEADRIAIENGDQPLSAELKRFRKEYIQPVQLRVLNVCRHWVEHHFYDFERDAYLLQRMEEFIGTVRGKAMKKWVESITKIIQRKKIARDNGPGHNITFQSSPPTVEWHISRPGHIETFDLLTLHPIEIARQLTLLESDLYRAVQPSELVGSVWTKEDKEINSPNLLKMIRHTTNLTLWFEKCIVETENLEERVAVVSRIIEILQVFQELNNFNGVLEVVSAMNSSPVYRLDHTFEQIPSRQKKILEEAHELSEDHYKKYLAKLRSINPPCVPFFGIYLTNILKTEEGNPEVLKRHGKELINFSKRRKVAEITGEIQQYQNQPYCLRVESDIKRFFENLNPMGNSMEKEFTDYLFNKSLEIEPRNPKPLPRFPKKYSYPLKSPGVRPSNPRPGTMRHPTPLQQEPRKISYSRIPESETESTASAPNSPRTPLTPPPASGASSTTDVCSVFDSDHSSPFHSSNDTVFIQVTLPHGPRSASVSSISLTKGTDEVPVPPPVPPRRRPESAPAESSPSKIMSKHLDSPPAIPPRQPTSKAYSPRYSISDRTSISDPPESPPLLPPREPVRTPDVFSSSPLHLQPPPLGKKSDHGNAFFPNSPSPFTPPPPQTPSPHGTRRHLPSPPLTQEVDLHSIAGPPVPPRQSTSQHIPKLPPKTYKREHTHPSMHRDGPPLLENAHSS
- dissociation half-life with 10 μM actinomycin D [7]: 84 s
- reduction of copatterning with 10 μM actinomycin D [7]: 25%
- bait-normalized fluorescence contrast <c prey/bait> [8]: 0.55
- half-time of dissociation (FRAP) [9]: 13 s
- k slow (exchange rate, FRAP) [9]: 0.074 s⁻¹
- bait-normalized fluorescence contrast <c prey/bait> [10]: 0.56

From publication PMC8630788
